Numbered stars: 1 amine (or outer) side, 2 acyl side, 3 side chain; on linkers, the order of the positions; unused ones are H or OH. Bridge positions count the residues as written; N and C are the ends. Side chains are listed from the residue outwards. Ends that are not written are not given here. * marks the point of attachment. C20 diacid = O=C(O)CCCCCCCCCCCCCCCCCCC(=O)*; γGlu = O=C(O)[C@H](CCC(=O)[*:2])N[*:1]
T1: human calcitonin receptor (human, UniProt P30988 25-474)
T1 construct: whole, on cells; Assayed as cell membranes of BHK tk'ts 13 cells stably transfected with the human calcitonin receptor (Assay VII); also called hCTR; hCT
T1 sequence (looked up): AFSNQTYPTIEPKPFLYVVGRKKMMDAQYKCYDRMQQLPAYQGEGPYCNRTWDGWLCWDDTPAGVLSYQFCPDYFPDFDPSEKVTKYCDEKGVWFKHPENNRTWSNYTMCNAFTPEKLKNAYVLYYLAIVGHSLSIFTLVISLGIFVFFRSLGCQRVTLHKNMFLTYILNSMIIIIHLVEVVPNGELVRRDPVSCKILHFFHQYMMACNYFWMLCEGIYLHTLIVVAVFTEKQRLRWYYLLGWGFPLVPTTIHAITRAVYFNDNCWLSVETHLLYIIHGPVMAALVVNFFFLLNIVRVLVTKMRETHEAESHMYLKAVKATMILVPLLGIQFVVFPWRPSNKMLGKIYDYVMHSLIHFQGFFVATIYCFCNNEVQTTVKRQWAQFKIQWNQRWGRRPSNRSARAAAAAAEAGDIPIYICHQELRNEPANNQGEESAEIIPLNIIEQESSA

T2: human amylin receptor (amylin 3(a) receptor: human calcitonin receptor co-expressed with RAMP-3) (human, UniProt P30988 25-474; O60896 24-148, limits assumed)
T2 construct: whole, on cells; Assayed as cell membranes of BHK570 Amylin 3(a)/CRE-luc cells (Assay V); also called hAmylin-R; hAmylinR
T2 sequence (looked up) 1: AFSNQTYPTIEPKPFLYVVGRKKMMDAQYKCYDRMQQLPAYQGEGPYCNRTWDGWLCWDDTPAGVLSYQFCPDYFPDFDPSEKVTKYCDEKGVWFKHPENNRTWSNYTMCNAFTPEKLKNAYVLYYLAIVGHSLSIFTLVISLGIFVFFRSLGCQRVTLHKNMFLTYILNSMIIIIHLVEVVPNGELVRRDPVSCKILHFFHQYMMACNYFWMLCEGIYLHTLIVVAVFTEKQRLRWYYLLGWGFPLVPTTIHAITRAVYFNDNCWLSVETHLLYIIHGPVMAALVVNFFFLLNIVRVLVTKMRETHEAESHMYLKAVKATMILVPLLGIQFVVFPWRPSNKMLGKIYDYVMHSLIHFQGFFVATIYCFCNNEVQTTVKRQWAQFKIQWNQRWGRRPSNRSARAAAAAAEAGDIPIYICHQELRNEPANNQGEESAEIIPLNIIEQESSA
T2 sequence (looked up) 2: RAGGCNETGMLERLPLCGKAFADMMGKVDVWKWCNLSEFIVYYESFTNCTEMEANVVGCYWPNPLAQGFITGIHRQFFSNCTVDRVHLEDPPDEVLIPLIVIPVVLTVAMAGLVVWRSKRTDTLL

T3: human calcitonin receptor (human, UniProt P30988 25-474)
T3 sequence (looked up): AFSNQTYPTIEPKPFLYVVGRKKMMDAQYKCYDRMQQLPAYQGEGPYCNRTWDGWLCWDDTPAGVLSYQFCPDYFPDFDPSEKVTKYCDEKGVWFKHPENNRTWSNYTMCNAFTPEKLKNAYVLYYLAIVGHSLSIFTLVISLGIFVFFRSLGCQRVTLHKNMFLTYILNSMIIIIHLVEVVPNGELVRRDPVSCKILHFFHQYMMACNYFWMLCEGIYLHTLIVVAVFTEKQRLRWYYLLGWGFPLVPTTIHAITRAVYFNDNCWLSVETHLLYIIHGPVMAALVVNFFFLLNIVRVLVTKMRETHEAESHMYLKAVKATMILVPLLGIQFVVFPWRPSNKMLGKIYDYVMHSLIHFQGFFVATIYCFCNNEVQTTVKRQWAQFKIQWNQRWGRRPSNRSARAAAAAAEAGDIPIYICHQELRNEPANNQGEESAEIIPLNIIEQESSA

T4: rat calcitonin receptor (rat, UniProt P32214 25-516)
T4 construct: whole, on cells; Used as membranes prepared from transiently transfected BHK tk'ts 13 cells (Assay VIII); also called rCTR; rat calcitonin (a) receptor
T4 sequence (looked up): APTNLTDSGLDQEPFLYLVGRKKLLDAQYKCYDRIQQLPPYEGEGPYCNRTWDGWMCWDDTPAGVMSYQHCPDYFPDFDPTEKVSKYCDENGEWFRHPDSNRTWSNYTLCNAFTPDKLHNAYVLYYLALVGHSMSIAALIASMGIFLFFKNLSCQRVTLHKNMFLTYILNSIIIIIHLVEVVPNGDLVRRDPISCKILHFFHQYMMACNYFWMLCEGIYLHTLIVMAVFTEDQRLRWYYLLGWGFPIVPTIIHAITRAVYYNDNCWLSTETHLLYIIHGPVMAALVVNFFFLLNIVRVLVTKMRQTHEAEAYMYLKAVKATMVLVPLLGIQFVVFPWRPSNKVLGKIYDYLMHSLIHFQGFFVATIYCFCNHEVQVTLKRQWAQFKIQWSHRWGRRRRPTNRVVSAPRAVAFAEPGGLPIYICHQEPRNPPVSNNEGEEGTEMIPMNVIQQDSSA


Legend:
[1] = biological target: T1, human calcitonin receptor; assay: IC50 at hCTR divided by IC50 at hAmylin-R (SPA competition assays V and VII)
Outline: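 IC₅₀ values were derived by one-site competition analysis of SPA counts. Cell membranes (35 ng/μL) with SPA beads were incubated with test compounds for 120 min at 25° C in Hepes buffer, pH 7.4, containing CaCl2, MgCl₂, OA and Tween20.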

[2] = biological target: T2, human amylin receptor (amylin 3(a) …); assay: SPA competition vs 125I-rat amylin, membranes of BHK cells with human amylin 3(a) receptor (Assay V)
Description: The binding assay was performed using scintillation proximity assay (SPA) beads (RPNQ0001) from PerkinElmer and cell membranes from the Amylin 3(a)/CRE-luc cells (as described in Assay (II)) were used. Membranes were prepared in the following way; the cells were rinsed with PBS and incubated with Versene for approximately 5 min before harvesting. The cells were flushed with PBS and the cell-suspension was centrifuged for 5 min at 1000 rpm. Cells were homogenized (ultrathurrax) in a buffer containing 20 mM Na-HEPES and 10 mM EDTA (pH 7.4) and centrifuged at 20.000 rpm for 15 min. The resulting pellet was resuspended, homogenized and centrifuged (20.000 rpm, 15 min) in a buffer containing 20 mM Na-HEPES and 0.1 mM EDTA (pH 7.4, buffer 2). The resulting pellet was resuspended in buffer 2 and protein concentration was measured (BCA protein Assay, Pierce). The homogenate was kept cold during the whole procedure. The membranes were kept at −80° C. until use. The assay was performed in a 384 well Optiplate (PerkinElmer) in a total volume of 40 ul. Membranes were mixed with SPA beads. Final concentration of membranes 35 ng/μL final and SPA beads was 0.05 mg/well. […] Samples were analyzed on TopCounter™ (Packard). The IC₅₀ was calculated using (one site binding competition analysis) GraphPad Prism5 as a measure of receptor affinity.

[3] = biological target: T1, human calcitonin receptor; assay: SPA competition vs 125I-calcitonin, membranes of BHK cells with human calcitonin receptor (Assay VII)
Outline: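 BHK hCTR membranes 35 ng/μL + SPA beads 0.05 mg/well; buffer 50 mM Hepes pH 7.4, 1 mM CaCl2, 5 mM MgCl₂, 0.1% OA, 0.02% Tween20. 120 min, 25° C., shaking. Scintillation count; IC50 by one-site binding competition.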

[4] = biological target: T3, human calcitonin receptor; assay: cell-based or functional assay
rat calcitonin receptor = biological target: T4, rat calcitonin receptor; assay: SPA competition binding, displacement of 125I-calcitonin from membranes of BHK tk'ts 13 cells with rat calcitonin receptor (Assay VIII)

Binder | Ratio hCT/hAmylin binding [1] | IC50 [2] | IC50 [3] | hCTR funct. EC50 (CRE luciferase reporter, BHK cells) [4] | IC50 (rat calcitonin receptor)
K([γGlu-C20 diacid])CNTATCATQRLAHFLRHSSPNFGAIPSSTNVGPNTY-NH2 (disulfide 2-7; N-terminus assumed; SMILES CC[C@H](C)[C@H](NC(=O)[C@H](C)NC(=O)CNC(=O)[C@H](Cc1ccccc1)NC(=O)[C@H](CC(N)=O)NC(=O)[C@@H]1CCCN1C(=O)[C@H](CO)NC(=O)[C@H](CO)NC(=O)[C@H](Cc1c[nH]cn1)NC(=O)[C@H](CCCNC(=N)N)NC(=O)[C@H](CC(C)C)NC(=O)[C@H](Cc1ccccc1)NC(=O)[C@H](Cc1c[nH]cn1)NC(=O)[C@H](C)NC(=O)[C@H](CC(C)C)NC(=O)[C@H](CCCNC(=N)N)NC(=O)[C@H](CCC(N)=O)NC(=O)[C@@H](NC(=O)[C@H](C)NC(=O)[C@@H]1CSSC[C@H](NC(=O)[C@@H](N)CCCCNC(=O)CC[C@H](NC(=O)CCCCCCCCCCCCCCCCCCC(=O)O)C(=O)O)C(=O)N[C@@H](CC(N)=O)C(=O)N[C@@H]([C@@H](C)O)C(=O)N[C@@H](C)C(=O)N[C@@H]([C@@H](C)O)C(=O)N1)[C@@H](C)O)C(=O)N1CCC[C@H]1C(=O)N[C@@H](CO)C(=O)N[C@@H](CO)C(=O)N[C@H](C(=O)N[C@@H](CC(N)=O)C(=O)N[C@H](C(=O)NCC(=O)N1CCC[C@H]1C(=O)N[C@@H](CC(N)=O)C(=O)N[C@H](C(=O)N[C@@H](Cc1ccc(O)cc1)C(N)=O)[C@@H](C)O)C(C)C)[C@@H](C)O, also called compound 67) | 51.6 | 0.09 nM | 4.63 nM | – | –
{C20 diacid-γGlu}-KCNTATCATQRLAEFLRHSSPNFGAIPSSTNVGHNTY-NH2 (disulfide 2-7; SMILES CC[C@H](C)[C@H](NC(=O)[C@H](C)NC(=O)CNC(=O)[C@H](Cc1ccccc1)NC(=O)[C@H](CC(N)=O)NC(=O)[C@@H]1CCCN1C(=O)[C@H](CO)NC(=O)[C@H](CO)NC(=O)[C@H](Cc1c[nH]cn1)NC(=O)[C@H](CCCNC(=N)N)NC(=O)[C@H](CC(C)C)NC(=O)[C@H](Cc1ccccc1)NC(=O)[C@H](CCC(=O)O)NC(=O)[C@H](C)NC(=O)[C@H](CC(C)C)NC(=O)[C@H](CCCNC(=N)N)NC(=O)[C@H](CCC(N)=O)NC(=O)[C@@H](NC(=O)[C@H](C)NC(=O)[C@@H]1CSSC[C@H](NC(=O)[C@H](CCCCN)NC(=O)CC[C@H](NC(=O)CCCCCCCCCCCCCCCCCCC(=O)O)C(=O)O)C(=O)N[C@@H](CC(N)=O)C(=O)N[C@@H]([C@@H](C)O)C(=O)N[C@@H](C)C(=O)N[C@@H]([C@@H](C)O)C(=O)N1)[C@@H](C)O)C(=O)N1CCC[C@H]1C(=O)N[C@@H](CO)C(=O)N[C@@H](CO)C(=O)N[C@H](C(=O)N[C@@H](CC(N)=O)C(=O)N[C@H](C(=O)NCC(=O)N[C@@H](Cc1c[nH]cn1)C(=O)N[C@@H](CC(N)=O)C(=O)N[C@H](C(=O)N[C@@H](Cc1ccc(O)cc1)C(N)=O)[C@@H](C)O)C(C)C)[C@@H](C)O, Synthetic acylated analogue of human amylin; also called compound 17) | – | – | – | 2.35 nM | –
KCNTATCATQRLANFLRHSSPNFGAIPSSTNVGHNTY (C20 diacid-gGlu on the alpha amino group of N-terminal Lys1; disulfide bridge Cys2-Cys7 and C-terminal amide as in human amylin, Synthetic acylated analogue of human amylin; also called compound 40) [N^α1-[(4S)-4-carboxy-4-(19-carboxynonadecanoylamino)butanoyl]-[Arg17,Pro21,Pro27,His34]-h-amylin] | – | – | – | 2.68 nM | –
KCNTATCATQRLADFLRHSSPNFGAIPSSTNVGSRTY-NH2 (disulfide 2-7 (inferred)) [[Asp14,Arg17,Pro21,Pro27,Arg35]-h-amylin] | – | – | – | – | 30.9 nM
{C20 diacid-γGlu}-GRCNTATCATQRLAHFLRHSSPNFGAIPSSTNVGSNTY-NH2 (disulfide 3-8; SMILES CC[C@H](C)[C@H](NC(=O)[C@H](C)NC(=O)CNC(=O)[C@H](Cc1ccccc1)NC(=O)[C@H](CC(N)=O)NC(=O)[C@@H]1CCCN1C(=O)[C@H](CO)NC(=O)[C@H](CO)NC(=O)[C@H](Cc1c[nH]cn1)NC(=O)[C@H](CCCNC(=N)N)NC(=O)[C@H](CC(C)C)NC(=O)[C@H](Cc1ccccc1)NC(=O)[C@H](Cc1c[nH]cn1)NC(=O)[C@H](C)NC(=O)[C@H](CC(C)C)NC(=O)[C@H](CCCNC(=N)N)NC(=O)[C@H](CCC(N)=O)NC(=O)[C@@H](NC(=O)[C@H](C)NC(=O)[C@@H]1CSSC[C@H](NC(=O)[C@H](CCCNC(=N)N)NC(=O)CNC(=O)CC[C@H](NC(=O)CCCCCCCCCCCCCCCCCCC(=O)O)C(=O)O)C(=O)N[C@@H](CC(N)=O)C(=O)N[C@@H]([C@@H](C)O)C(=O)N[C@@H](C)C(=O)N[C@@H]([C@@H](C)O)C(=O)N1)[C@@H](C)O)C(=O)N1CCC[C@H]1C(=O)N[C@@H](CO)C(=O)N[C@@H](CO)C(=O)N[C@H](C(=O)N[C@@H](CC(N)=O)C(=O)N[C@H](C(=O)NCC(=O)N[C@@H](CO)C(=O)N[C@@H](CC(N)=O)C(=O)N[C@H](C(=O)N[C@@H](Cc1ccc(O)cc1)C(N)=O)[C@@H](C)O)C(C)C)[C@@H](C)O, also called compound 99) | 100 | 0.348 nM | 35 nM | – | –

Source: patent publication US20140087995A1 (published 2014)
